Here are results for one molecule from PMC4964276 (The Biochemical journal, 2016).

The target in this test is RIIα-D/D(1–44) used for ITC (human, UniProt P13861 1-44). Description: ITC. In general terms: ITC needs no label: the signal is the heat of the interaction.
RIIα-D/D(1–44) used for ITC, sequence (P13861 1-44): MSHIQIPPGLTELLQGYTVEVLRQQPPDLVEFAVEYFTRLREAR

B1: AKAP18β(43–83) (domain or fragment, human)
chain: NGGEPDDAELVRLSKRLVENAVLKAVQQYLEETQNKNKPGE
In the case of B1, the Kd (commonly the equilibrium constant for the complex coming apart) worked out at 0.6 nM; the dH is -22550 ± 171; the stoichiometry N (as a rule, a count of units in the complex or per binding partner) was found to be 0.98 sites.
